Reference: the Human Domainome abundance scans (Beltran et al. 2025)
± gives the uncertainty stated by the source.

B1: Pyruvate dehydrogenase protein X component, mitochondrial, residues 181 to 227; numbered along this chain, O00330 (parent)
chain: RFRLSPAARNILEKHSLDASQGTATGPRGIFTKEDALKLVQLKQTGK

Variants of: B1
Test: abundance fitness (aPCA) (normalised: wild type 0, dead -1); higher = more abundant; growth selection in yeast, the domain comes from the species named
Settings: Homo sapiens

Variant	abundance fitness
RFRLSPAARNDLEKHSLDASQGTATGPRGIFTKEDALKLVQLKQTGK [I11D]	-0.175 ± 0.091
RFRLSPAARNRLEKHSLDASQGTATGPRGIFTKEDALKLVQLKQTGK [I11R]	-0.397 ± 0.054
RFRLSPAARNPLEKHSLDASQGTATGPRGIFTKEDALKLVQLKQTGK [I11P]	-0.383 ± 0.15
RFRLSPAARNKLEKHSLDASQGTATGPRGIFTKEDALKLVQLKQTGK [I11K]	-0.419 ± 0.087
RFRLSPAARNTLEKHSLDASQGTATGPRGIFTKEDALKLVQLKQTGK [I11T]	-0.532 ± 0.08
RFRLSPAARNGLEKHSLDASQGTATGPRGIFTKEDALKLVQLKQTGK [I11G]	-0.409 ± 0.055
RFRLSPAARNMLEKHSLDASQGTATGPRGIFTKEDALKLVQLKQTGK [I11M]	-0.52 ± 0.06
RFRLSPAARNSLEKHSLDASQGTATGPRGIFTKEDALKLVQLKQTGK [I11S]	-0.436 ± 0.057
RFRLSPAVRNILEKHSLDASQGTATGPRGIFTKEDALKLVQLKQTGK [A8V]	-0.639 ± 0.055
RFRLSPAQRNILEKHSLDASQGTATGPRGIFTKEDALKLVQLKQTGK [A8Q]	-0.601 ± 0.087
RFRLSPAIRNILEKHSLDASQGTATGPRGIFTKEDALKLVQLKQTGK [A8I]	-1.07 ± 0.17
RFRLSPAERNILEKHSLDASQGTATGPRGIFTKEDALKLVQLKQTGK [A8E]	-0.183 ± 0.055
RFRLSPANRNILEKHSLDASQGTATGPRGIFTKEDALKLVQLKQTGK [A8N]	-0.817 ± 0.18
RFRLSPALRNILEKHSLDASQGTATGPRGIFTKEDALKLVQLKQTGK [A8L]	-1.02 ± 0.077
RFRLSPARRNILEKHSLDASQGTATGPRGIFTKEDALKLVQLKQTGK [A8R]	-0.391 ± 0.054
RFRLSPAHRNILEKHSLDASQGTATGPRGIFTKEDALKLVQLKQTGK [A8H]	-0.564 ± 0.076
RFRLSPAFRNILEKHSLDASQGTATGPRGIFTKEDALKLVQLKQTGK [A8F]	-0.683 ± 0.12
RFRLSPACRNILEKHSLDASQGTATGPRGIFTKEDALKLVQLKQTGK [A8C]	-0.999 ± 0.096
RFRLSPAWRNILEKHSLDASQGTATGPRGIFTKEDALKLVQLKQTGK [A8W]	-1.15 ± 0.17
RFRLSPAMRNILEKHSLDASQGTATGPRGIFTKEDALKLVQLKQTGK [A8M]	-0.29 ± 0.1
RFRLSPATRNILEKHSLDASQGTATGPRGIFTKEDALKLVQLKQTGK [A8T]	-0.387 ± 0.06
RFRLSPAYRNILEKHSLDASQGTATGPRGIFTKEDALKLVQLKQTGK [A8Y]	-0.902 ± 0.063
RFRLSPSARNILEKHSLDASQGTATGPRGIFTKEDALKLVQLKQTGK [A7S]	-0.078 ± 0.052
RFRLSPDARNILEKHSLDASQGTATGPRGIFTKEDALKLVQLKQTGK [A7D]	-0.211 ± 0.11
RFRLSPTARNILEKHSLDASQGTATGPRGIFTKEDALKLVQLKQTGK [A7T]	0.01 ± 0.073
RFRLSPPARNILEKHSLDASQGTATGPRGIFTKEDALKLVQLKQTGK [A7P]	-0.697 ± 0.082
RFRLSPRARNILEKHSLDASQGTATGPRGIFTKEDALKLVQLKQTGK [A7R]	-0.222 ± 0.047
RFRLSPGARNILEKHSLDASQGTATGPRGIFTKEDALKLVQLKQTGK [A7G]	0.06 ± 0.049

Variant	abundance fitness
RFRLSPMARNILEKHSLDASQGTATGPRGIFTKEDALKLVQLKQTGK [A7M]	-0.396 ± 0.095
RFRLSPKARNILEKHSLDASQGTATGPRGIFTKEDALKLVQLKQTGK [A7K]	-0.187 ± 0.046
RFRLSPWARNILEKHSLDASQGTATGPRGIFTKEDALKLVQLKQTGK [A7W]	-0.98 ± 0.13
RFRLSPIARNILEKHSLDASQGTATGPRGIFTKEDALKLVQLKQTGK [A7I]	-0.263 ± 0.099
RFRLSPNARNILEKHSLDASQGTATGPRGIFTKEDALKLVQLKQTGK [A7N]	-0.432 ± 0.072
RFRLSPHARNILEKHSLDASQGTATGPRGIFTKEDALKLVQLKQTGK [A7H]	-0.605 ± 0.15
RFRLSPQARNILEKHSLDASQGTATGPRGIFTKEDALKLVQLKQTGK [A7Q]	0.062 ± 0.061
RFRLSPAARNICEKHSLDASQGTATGPRGIFTKEDALKLVQLKQTGK [L12C]	-0.019 ± 0.067
RFRLSPAARNIAEKHSLDASQGTATGPRGIFTKEDALKLVQLKQTGK [L12A]	-0.317 ± 0.048
RFRLSPAARRILEKHSLDASQGTATGPRGIFTKEDALKLVQLKQTGK [N10R]	0.024 ± 0.047
RFRLSPAARTILEKHSLDASQGTATGPRGIFTKEDALKLVQLKQTGK [N10T]	0.002 ± 0.048
RFRLSPAARWILEKHSLDASQGTATGPRGIFTKEDALKLVQLKQTGK [N10W]	-0.272 ± 0.048
RFRLSPAARDILEKHSLDASQGTATGPRGIFTKEDALKLVQLKQTGK [N10D]	0.192 ± 0.085
RFRLSPAARLILEKHSLDASQGTATGPRGIFTKEDALKLVQLKQTGK [N10L]	0.064 ± 0.048
RFRLSPAARSILEKHSLDASQGTATGPRGIFTKEDALKLVQLKQTGK [N10S]	0.003 ± 0.054
RFRLSPAARHILEKHSLDASQGTATGPRGIFTKEDALKLVQLKQTGK [N10H]	-0.086 ± 0.058
RFRLSPAARCILEKHSLDASQGTATGPRGIFTKEDALKLVQLKQTGK [N10C]	-0.13 ± 0.055
RFRLSPAARVILEKHSLDASQGTATGPRGIFTKEDALKLVQLKQTGK [N10V]	-0.001 ± 0.058
RFRLSPAARYILEKHSLDASQGTATGPRGIFTKEDALKLVQLKQTGK [N10Y]	-0.192 ± 0.12
RFRLSPAARQILEKHSLDASQGTATGPRGIFTKEDALKLVQLKQTGK [N10Q]	0.106 ± 0.051
RFRLSPAAREILEKHSLDASQGTATGPRGIFTKEDALKLVQLKQTGK [N10E]	0.439 ± 0.074
RFRLSPAARPILEKHSLDASQGTATGPRGIFTKEDALKLVQLKQTGK [N10P]	-0.163 ± 0.069
RFRLSPAARFILEKHSLDASQGTATGPRGIFTKEDALKLVQLKQTGK [N10F]	0.106 ± 0.088
RFRLSPAARGILEKHSLDASQGTATGPRGIFTKEDALKLVQLKQTGK [N10G]	-0.058 ± 0.046
RFRLSPAARMILEKHSLDASQGTATGPRGIFTKEDALKLVQLKQTGK [N10M]	-0.052 ± 0.087
RFRLSPAARKILEKHSLDASQGTATGPRGIFTKEDALKLVQLKQTGK [N10K]	-0.014 ± 0.079
RFRLSPAARAILEKHSLDASQGTATGPRGIFTKEDALKLVQLKQTGK [N10A]	0.063 ± 0.048
